The values that follow come from the supplement of paper PMC10126150.

For this data set, the system named is ATP. Nature of the data set: switch fluorescence ratio, 500 uM ATP over buffer (Cy3 cluster intensity, sum of 5 cycles each) (fold (ratio)); higher = stronger signal-on switching upon ATP binding; sequences stand for … in TCGTCGGCAGCGTCAGATGTGTATAAGAGACAGTTTTTTTTTTTTTTTTTTTTTTTTT…TC. To be noted: aptamer strand: ATP DNA aptamer (quencher-CACCTGGGGGAGTATTGCGGAGGAAGG + anchor), 100 nM annealed; ATP concentration: 500 uM. The gist of the method:
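Clusters with intensities outside 100-1000 RFU were excluded. The remaining Cy3-labelled switching-strand clusters on a modified Illumina MiSeq flow-cell had been annealed to 100 nM quencher-labelled ATP aptamer and imaged in selection buffer, then after 15 min with 500 uM ATP at 22 °C, for five cycles separated by NaOH stripping and re-annealing. The fluorescence ratio, averaged per switch-domain sequence, is each cluster's summed target-cycle Cy3 intensity over its summed buffer-cycle Cy3 intensity.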

± gives the standard deviation of the averaged measurements.
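Further: ATP exposure 15 min at 22 °C before imaging.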

As to GCATTTCATG, the switch fluorescence ratio was found to be 0.987 ± 0.021.
With TGCGTCAGGG, the switch fluorescence ratio amounted to 0.974 ± 0.015.
In the case of CCCAAACCTG it was 1.13 ± 0.068; in that of CAGTAGGCAA, 2 ± 0.15.
In the case of GGACGAGGTG it was 0.9756 ± 0.0049; in that of GCGAGCGAAA, 0.982 ± 0.019.
TTACGGTTGG: the switch fluorescence ratio worked out at 0.995 ± 0.025.
For CATTGGTCAT the value was 0.995 ± 0.045; for AATATTTTCC, 1.04 ± 0.052.
In the case of CGGATTTGGG it was 0.957 ± 0.067; in that of TTTAATGTGG, 0.999 ± 0.03.
For ATTTATGCGG the value was 0.985 ± 0.029.
Regarding GAAGGGGTGA, the switch fluorescence ratio was 1.03 ± 0.053.
In the case of GTGTTGGATG it was 0.958 ± 0.069.
As for ATACGTTGG, the switch fluorescence ratio worked out at 0.9748 ± 0.0046.
On to GGGATTTATG, for which the switch fluorescence ratio is 1.01 ± 0.036.
With CGCTGGATGG, the switch fluorescence ratio is 0.985 ± 0.0075.
In the case of TCAAAAGTCG it was 1.03 ± 0.012; in that of CGATTGGAGT, 0.9864 ± 0.0058; in that of TTTTCGAGCT, 1.006 ± 0.0095.
For AGTAGCTCGG the value was 1.009 ± 0.0092; for TTGATTAATT, 0.9925 ± 0.0099.
In the case of CAGATGTCAA, the switch fluorescence ratio is 0.993 ± 0.013.
With GTTTGAACGC, the switch fluorescence ratio came to 1.08 ± 0.018.
For the sequence GGGGTATCTC, the switch fluorescence ratio came out at 0.986 ± 0.021.
Consider AGGCTACGTC, for which the switch fluorescence ratio worked out at 0.9925 ± 0.0061.
In the case of TAATTTAAGA it was 1.01 ± 0.013.
Take TTGAGGGCTT: the switch fluorescence ratio was determined as 0.998 ± 0.025.
For ATATGTGTTT, the switch fluorescence ratio was 1.05 ± 0.018.
For CGCGTGATGG the value was 1 ± 0.021; for TGATAGGGTG, 1.03 ± 0.053.
For TATAGCTTGG, the switch fluorescence ratio worked out at 1 ± 0.029.
In the case of TGTGAAATAG it was 1.02 ± 0.028; in that of CGAGGGTAGT, 1.01 ± 0.025; in that of CTTGACGGTT, 1.01 ± 0.092.
Regarding GACCGTTGGA, the switch fluorescence ratio stood at 0.987 ± 0.037.
In the case of GGGGTCCTAA it was 0.986 ± 0.011; in that of GGCTTCCCTG, 1.19 ± 0.025.
For GGGTGAGGGG the value was 1.01 ± 0.033; for TGCTTGGCTA, 0.98 ± 0.033.
As to TAGGTAAGAT, the switch fluorescence ratio is 0.993 ± 0.015.
TAAAATTGAG: the switch fluorescence ratio is 1 ± 0.024.
For GTGGAGGGGG the value was 0.9841 ± 0.0047; for GGTTTAGGGC, 0.992 ± 0.066.
For TACGGGAACG, the switch fluorescence ratio came to 1.06 ± 0.018.
With GATTTTGTCT, the switch fluorescence ratio was found to be 0.9923 ± 0.0099.
With AGGGGATTCA, the switch fluorescence ratio is 1.02 ± 0.02.
In the case of GTTGGTATTG it was 1 ± 0.021; in that of GGGGAGCGAT, 1.05 ± 0.019; in that of ATACACATCC, 1.06 ± 0.061.
In the case of TTCGGGCGGA it was 0.98 ± 0.011.
In the case of GGATGAGTAT it was 1.02 ± 0.058; in that of TCGTTTTACT, 1.34 ± 0.44.
Consider ATCGGGATAG, for which the switch fluorescence ratio was found to be 1.04 ± 0.044.
With TAGTCGGAGA, the switch fluorescence ratio came to 1.01 ± 0.019.
For TAACACTCCT the value was 1.1 ± 0.02; for CATATCTAGC, 0.997 ± 0.034; for ACCTAGCTCC, 1.71 ± 0.056.
For ATTAGAATGG, the switch fluorescence ratio came to 1 ± 0.01.
Turning to TTCAAGCTTT, the switch fluorescence ratio came out at 1.01 ± 0.022.
Turning to GCTAACGGAG, the switch fluorescence ratio stood at 1.0112 ± 0.00048.
In the case of TGTAATTCTA it was 1.011 ± 0.0032; in that of AGCGTTGGTG, 1.03 ± 0.031.
TTTTTTATAG: the switch fluorescence ratio is 1 ± 0.038.
For CAAGTTCGTG the value was 1.002 ± 0.0089; for AGACGTTTAA, 1.002 ± 0.0035; for AGAGGGAAGG, 0.959 ± 0.014.
For TAAGCGCGGC the value was 1.055 ± 0.0079; for TTTTGATCAT, 0.98 ± 0.013.
For GATGGGTTGG the value was 0.9899 ± 0.008.
As to AGCGTTTATA, the switch fluorescence ratio came out at 1.018 ± 0.0013.
In the case of AAGTAAGTAG it was 1.01 ± 0.021.
Regarding ATTTGGACGT, the switch fluorescence ratio was found to be 1.02 ± 0.016.
For TTCGGACGT, the switch fluorescence ratio amounted to 1.02 ± 0.013.
For AGGCAGTTGG the value was 0.966 ± 0.019; for TGAGAGTTTT, 0.978 ± 0.036.
For GGTGCCGTTT the value was 0.998 ± 0.026; for CTCAATAGCA, 1.036 ± 0.0037.
In the case of TCATCTACTT it was 1.02 ± 0.041; in that of AGTGAGCAGC, 1.04 ± 0.039.
In the case of TGATGGGGCG, the switch fluorescence ratio is 0.982 ± 0.023.
For TGGGGTTGGT the value was 0.993 ± 0.018; for TTCGTCGGGC, 0.9863 ± 0.0071; for AGGTCCTCTA, 0.974 ± 0.059.
For TTATTGTTGA the value was 1.02 ± 0.011; for TTTGTTATTG, 1.3 ± 0.44; for TGGTTTTTCC, 1.11 ± 0.12.
In the case of GTGGTGGGTT it was 0.975 ± 0.018.
On to TTAGGAAGTT, for which the switch fluorescence ratio turned out to be 1 ± 0.033.
For GCGGTGAGGC the value was 0.9709 ± 0.0056; for ATTTGTAATC, 1.22 ± 0.31.
TGGGGGCCGA: the switch fluorescence ratio was found to be 1.049 ± 0.0034.
For ATGGAGGGGT the value was 1 ± 0.045; for GGGAGATATT, 0.985 ± 0.0099.
For the sequence TTTATCTGCT, the switch fluorescence ratio was found to be 0.981 ± 0.037.
In the case of TTGGGATTCT it was 0.979 ± 0.019; in that of TTGGGGGGCA, 1.32 ± 0.65; in that of ATCCTATTTG, 1.0056 ± 0.0008.
For GGGTGATGTA the value was 0.996 ± 0.026; for ATAGGGGAAT, 0.9872 ± 0.0072; for GCTCGTTTTG, 0.981 ± 0.043.
For GACTTAGGTA, the switch fluorescence ratio came out at 0.975 ± 0.027.
With AAACGCAAAG, the switch fluorescence ratio came out at 1.27 ± 0.3.
For TCGGGAGGTT the value was 1.01 ± 0.031; for AGTTGTGGTA, 1.003 ± 0.01.
For GTACCCTATG, the switch fluorescence ratio is 1.07 ± 0.029.
TCTTGCTTC: the switch fluorescence ratio was found to be 1.0084 ± 0.00091.
Consider GCCGCGGGGA, for which the switch fluorescence ratio stood at 1.04 ± 0.024.
For AACTTTATTT the value was 0.992 ± 0.018; for TTGACAGCGA, 1.22 ± 0.061; for TTTGATAAAT, 1 ± 0.014.
In the case of ATTCGTTATG it was 1 ± 0.013.
For the sequence GGGTTGATGC, the switch fluorescence ratio amounted to 1.02 ± 0.041.
In the case of AGTGTTACTG it was 0.975 ± 0.044; in that of GGTCTGGTGC, 1.031 ± 0.0048; in that of AACAACAGGA, 1.03 ± 0.045.
In the case of ATCGCGGGCC it was 1.03 ± 0.036; in that of ACGAAATGTT, 0.988 ± 0.021.
For CGGTAAGTGG the value was 0.988 ± 0.024; for TGAATGGGGA, 1.01 ± 0.029.
